From US20140037547A1 (UNIVERSITY OF VERMONT AND STATE AGRICULTURAL COLLEGE, published 2014)
Values belong to the binder of their own block, whether it stands above or below them.

What was measured:
SW:329-358 = target: T1, SW:329-358
T1 chain: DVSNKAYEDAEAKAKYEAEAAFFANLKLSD

SW:329-349 = target: T2, SW:329-349
T2 chain: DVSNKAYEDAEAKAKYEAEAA

[1] = target: T3, wild-type PKG Iα (cGMP-dependent protein kinase type Iα, full length) (UniProt P00516 2-671); assay: cell-based or functional assay
T3 sequence (looked up): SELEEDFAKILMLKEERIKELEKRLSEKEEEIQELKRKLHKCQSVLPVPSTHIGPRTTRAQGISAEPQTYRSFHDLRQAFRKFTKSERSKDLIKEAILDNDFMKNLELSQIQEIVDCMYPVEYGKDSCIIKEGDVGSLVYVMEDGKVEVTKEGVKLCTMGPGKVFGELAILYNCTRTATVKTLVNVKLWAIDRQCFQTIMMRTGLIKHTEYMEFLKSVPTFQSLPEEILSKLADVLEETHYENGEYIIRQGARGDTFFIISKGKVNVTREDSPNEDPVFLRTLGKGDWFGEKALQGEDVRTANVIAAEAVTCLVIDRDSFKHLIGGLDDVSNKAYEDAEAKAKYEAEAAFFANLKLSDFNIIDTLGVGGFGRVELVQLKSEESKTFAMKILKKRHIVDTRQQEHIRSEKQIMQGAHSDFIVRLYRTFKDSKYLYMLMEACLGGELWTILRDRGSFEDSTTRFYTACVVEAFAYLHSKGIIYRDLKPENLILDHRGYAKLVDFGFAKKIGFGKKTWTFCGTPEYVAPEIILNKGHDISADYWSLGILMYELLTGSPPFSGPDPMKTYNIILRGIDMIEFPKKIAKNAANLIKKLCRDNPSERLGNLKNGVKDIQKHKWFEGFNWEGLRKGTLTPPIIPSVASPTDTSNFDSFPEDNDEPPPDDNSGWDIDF

B1: wild-type PKG Iα (cGMP-dependent protein kinase type Iα, full length) (protein)
chain: T3 sequence (looked up)
- Ka (activation of PKG Iα, 32P-incorporation assay) (SW:329-358): Ka=500 µM
- activation of PKG Iα (32P-incorporation assay, cGMP priming conditions) (SW:329-349): rendered a completely inactive SW-peptide derivative

Binder: DVSNKAYEDAEAKAKYEAEAAFFANLK [SW:329-355]
- Ka (activation of PKG Iα, cGMP priming conditions) [1]: 500 µM

Continued, values first:

- Ka (activation of PKG) [1]: 500 µM
- activation relative to activation associated with cGMP [1]: 30%
Binder: AAFFANLK [SW:348-355 AAFFANLK]

- Ka (activation of PKG Iα, kinase primed with 100 nM cGMP) [1]: 40 µM
- shift of the activation profile on priming with 100 nM cGMP [1]: 20 fold
Binder: DVSNKAYEDAEAKAKYEAEAAFFANLKLSD [SW:329-358]
